Measured values: the supplement of paper PMC12042874
± gives the uncertainty stated by the source.

Assay: amyloid nucleation score (Sup35N fusion, yeast selection) (log enrichment); library NNK3; higher = more nucleation; inactive = no reads after selection
Procedure, shortened: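 The nucleation score is the DiMSum log enrichment of output over input reads, centred on the mode score of non-aggregating sequences. Only sequences with 100 or more input reads were scored, using Illumina sequencing of input and output plasmid inserts. Psi-negative yeast expressing Sup35N fused to peptides of 20 random codons were induced 24 hours with 100 μM copper sulfate and grown 7 days at 30°C on medium lacking adenine and uracil.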
For VGIKTFGESGMYQVCSQVSC, the amyloid nucleation score was “inactive”. With VGLAVVSLLSNRRNEDELCF the amyloid nucleation score was “inactive”. In the case of VGQFVRGLVKLCNGMYYWWL, the amyloid nucleation score is reported as “inactive”. In the case of VGSAGVSVFVWRVCRFCEGN, the amyloid nucleation score is reported as -0.434 ± 1.1. For VGSCIVKMIDFASTKGRGLI, the amyloid nucleation score was “inactive”. For VGSIYDSHNLPMSGHSDWNG, the amyloid nucleation score was “inactive”. For VGSYVGRAVVEGYNCRVDTG, the amyloid nucleation score was “inactive”. With VGTFWGFTIPSWYSVVVEVC the amyloid nucleation score was “inactive”. In the case of VGYFV, the amyloid nucleation score is reported as “inactive”. With VGYGFIC the amyloid nucleation score was “inactive”. For VGYVWIDRYVWRYGLC, the amyloid nucleation score was “inactive”. With VHFCWNADVSLHITLVGINS the amyloid nucleation score was “inactive”. For VHFYWS, the amyloid nucleation score was “inactive”. In the case of VHHLLELEQVHNKDGTF, the amyloid nucleation score is reported as “inactive”. In the case of VHICKWVM, the amyloid nucleation score is reported as “inactive”. For VHKYSVDFGKGW, the amyloid nucleation score was “inactive”. In the case of VHLWGGRGHQLVWVHVRWGV, the amyloid nucleation score is reported as “inactive”. For VHREVGLDFYDNVTCTMFHI, the amyloid nucleation score was “inactive”. Substance VHSIYSTNFVLVFIPQSSVN has an amyloid nucleation score of 1.9 ± 0.075. With VIANVKIMTFFMAFSAVHTM the amyloid nucleation score was 1.48 ± 0.13. For VIAVRYYRLLDRMNVSGSVF, the amyloid nucleation score was “inactive”. For VIFNHVLACADYGVHKVVDL, the amyloid nucleation score was “inactive”. With VIIIEWV the amyloid nucleation score was “inactive”. In the case of VITTVTTWGLRAGDVMRRTR, the amyloid nucleation score is reported as 1.11 ± 0.17. For VIYHPRFSRFLCEDWHDTCS, the amyloid nucleation score was “inactive”. Work on VKCVYERRDGRLWLMILAMG yielded an amyloid nucleation score of -0.481 ± 0.52. In the case of VKDNFRFSLNRPMKRHVVWA, the amyloid nucleation score is reported as “inactive”. In the case of VKFMMPRVDIWFKDGVRRYT, the amyloid nucleation score is reported as “inactive”. For VKGGRLISLNRVLFLEDPVG, the amyloid nucleation score was “inactive”. In the case of VKISPNAWALQLR, the amyloid nucleation score is reported as “inactive”. With VKSVLFDGKL the amyloid nucleation score was “inactive”. In the case of VLAMIVRHRKYKIDFIFMLD, the amyloid nucleation score is reported as “inactive”. Work on VLARLQLHFCSMTSDRYGLM yielded an amyloid nucleation score of 1.04 ± 0.11. With VLCLLGSSVSS the amyloid nucleation score was “inactive”. For VLDVFKGIW, the amyloid nucleation score was “inactive”. VLDVVGKKFMRVSWQDGMPG showed an amyloid nucleation score of 1.13 ± 0.18. In the case of VLFNSPTRGVHLLQTGSRQS, the amyloid nucleation score is reported as “inactive”. For VLGDMVYGGHAL, the amyloid nucleation score was “inactive”. In the case of VLGILYSTE, the amyloid nucleation score is reported as “inactive”. For VLKSIGV, the amyloid nucleation score was “inactive”. For VLLCYNIVKPYNVSC, the amyloid nucleation score was “inactive”. In the case of VLLDMFRNFVWNSRVVFNGS, the amyloid nucleation score is reported as “inactive”. In the case of VLLFYLKVTRASTVGVLSSS, the amyloid nucleation score is reported as “inactive”. For VLLGTSECHSHKILQGKSAV, the amyloid nucleation score was “inactive”. In the case of VLLKALVIFDY, the amyloid nucleation score is reported as “inactive”. In the case of VLNSRTTPFI, the amyloid nucleation score is reported as “inactive”. With VLRETLR the amyloid nucleation score was “inactive”. For VLRKLYLSPDSGVNYCGDPV, the amyloid nucleation score was “inactive”. With VLSRGDMATFTTVMMRRDAH the amyloid nucleation score was “inactive”. For VLVAHMRGEPGVANEWPLFQ, the amyloid nucleation score was “inactive”. For VLVCTLVTSLTDAKFRKYFS, the amyloid nucleation score was 0.813 ± 0.2. For VLVEVEIYLILFIVYAW, the amyloid nucleation score was “inactive”. For VLVGDDCDRTVANVQ, the amyloid nucleation score was “inactive”. With VLVNHGFYW the amyloid nucleation score was “inactive”. In the case of VLYVIRNYSGDG, the amyloid nucleation score is reported as 1.62 ± 0.096. With VMCLRRMSFQCMQSQMEALA the amyloid nucleation score was “inactive”. Substance VMCVFLLYI has an amyloid nucleation score of 1.08 ± 0.11. With VMFLFGYNKVFKLSICWIGS the amyloid nucleation score was “inactive”. With VMLCHFDMYF the amyloid nucleation score was 1.45 ± 0.092. With VMMYFQFMPLKPSRD the amyloid nucleation score was 1.25 ± 0.12. With VMTIGTRV the amyloid nucleation score was “inactive”. In the case of VMWEPFAYLFISSWRYVSLK, the amyloid nucleation score is reported as “inactive”. For VNGTLGFIGRETLYGTTRLT, the amyloid nucleation score was “inactive”. In the case of VNHVIQNLVSNRSTWGICCT, the amyloid nucleation score is reported as “inactive”. In the case of VNIAETFSRHDPSHLWSYKS, the amyloid nucleation score is reported as “inactive”. For VNIWLPKTPLQLKLNLPSSM, the amyloid nucleation score was -0.829 ± 1.1. For VNKNVMWHDNNKFFHPFRAI, the amyloid nucleation score was 1.6 ± 0.082. Work on VNLHLTVEQLSMLYRTNANV yielded an amyloid nucleation score of 1.07 ± 0.14. For VNNKHVVWCSVHGGSSR, the amyloid nucleation score was “inactive”. In the case of VNRKLWGT, the amyloid nucleation score is reported as “inactive”. VNVMWKPLGLHIVPMFAFGK gave an amyloid nucleation score of 1.13 ± 0.16. In the case of VNVNSKYNVFLLMCRGVEVI, the amyloid nucleation score is reported as “inactive”. With VPDRCLD the amyloid nucleation score was “inactive”. For VPEVG, the amyloid nucleation score was “inactive”. With VPGLHLSNPTAELDMQI the amyloid nucleation score was “inactive”. In the case of VPGSSNVTCLYEGLSSYNTR, the amyloid nucleation score is reported as “inactive”. With VPQNVGVLWSRRQEAVVLVS the amyloid nucleation score was “inactive”. For VQSTVVQVGDWY, the amyloid nucleation score was “inactive”. For VQTWWLNMCLLPRKSTYTHL, the amyloid nucleation score was “inactive”. With VQWAEVAEMKGWGVANAWW the amyloid nucleation score was “inactive”.
